Results from publication doi:10.1101/2022.11.23.517744.
“And” between values parts separate entries of the source, which are not always exact repeats. Equal values may be shown once.

Biological target: human vinculin D1D2 (head domain subunits D1D2), wild type (human)
Experiment: native gel or EMSA

Substance: Shigella IpaA-VBS123 (C-terminal region with the three vinculin binding sites), wild type, GST cleaved (domain or fragment)
- stoichiometry N (D1D2 per IpaA-VBS123): 2 and 3
